Test results from the DeepSol protein solubility set.

Experiment: soluble on expression in E. coli; label from the status in PepcDB or PDB records

Soluble on expression in E. coli, not soluble:
MGSDKIHHHHHHMKLEFTCGEEITIKEVNKLKLELMTSGKGDVEKELERLKKNKNKVHDIKTEETIDLLDRCAKLWLDDNYSKKHIETLAQITNQSFELVNYEFKSMMQMLLRENIQNTIKRELGEVDILDSWHKTNYGYEHRQPRGIIFHNISGNAFVVIPMSISMGLLSKNCNLVKVSKDEPYFAYAFYKSLCELDETVKDRLSVLYFDSSKTEIYDTIVKNSDGVIHWGGEYSSRIIGEMCAKYQKHMIMHGAKISFEVVDKCDDLNKVSEEIAKDIICWEQKACLSPRVVFLNDKIDVDEFSHCLSASLRKITEVIPKAYLSEWNSVKTIQDRQYCTLKYGMKNERRFKVYSSFNADYTVILSDGMPEKEDINKCFYRFIFVCPYSSKSDVVNYVSENLKDYLQTMGYSGNDEEFIEKMTLLGVSIVTKPGKMSLHEPGTSHDGIHNLKEFTFLVSRQI
MGSDKIHHHHHHMKLHQGERVSFVKTIPSLQETEFSRLEERLCFAKHAHPTYSIGIMPLGLSLCQGEGETYFMGRHKVCVYHPGEEHTCVFEHTGGSWAYWNCYPKEEMLREYASEILGERGEPHFAKTVVEDPYAYRLFWELFDLVGKERELLALQEASLKAFSYLIAHHASPWHPSSRFLLMERAKITQAKERILEGDEVEKITLEELASLCGMSRFRFLRLFAKLEGMTPHRFLLMHKTQKAKRYLQEGCDISEAALLSGFCDQAHLSRTLRRFYGYTPRSLRS
MGSDKIHHHHHHMKLHQLRALVAIHNAGSILEASKLMHITQPALSRSIKELEREVGFTLLQRSHKGMALTEEGKRVIRHANLVVESIRRLQIEAASIQDAALGAVSIGVTSLTAMLDGVDESILAFRRKYPRVKITITDLRPSQILQRLRDGSLDFAITSQQPLSRLSLDWEALGSIKGRVICHASNRQKFSQSLRTLQYAPWISLDELSDQASQFHQLFEANGLRVPQNTVECTSVMMALKLLKNTESLMTISELAVDQGFTYGIDCEFVAMAVQELIPDYPINLVCIDRHSLTAPAQELFHSLRGQVLKQTRPVGSEVVVHA
MGSDKIHHHHHHMKLRNLLPLLGLMASAAHADAVTIQSCGVSQVFDKTPSRAITLNQQATEVMLALGLQEAMVGTAYIDDAIPAQWNDAYESVPVLAEKYPAAEVVLAQEPDFLFAGFGSAFSEDNLGAAEKWHDLGIGTYLVDASCKDKHLQDVPLTVAPIFEDIETVGKIFNVEDRANALIDTLQQRLDSVKAAPSGAGQTAFIYDSGAETPFSIGCCGGPALLASLTGLQSISSDVPGTWVDLSWEHVVAADPDVILLIEADWSTAAEKRAHMEADPVLSALRAVKEGRFVTVPFSETLLGMRFADGVETVNNQLAKLP
MGSDKIHHHHHHMKLVCAQSDLSTNLSLVNRAVPSRPTHPVLANVLLQADAETNQVSLTAFDLSLGIRTSFNADVWQSGAIALPAKLLVDITSRLPEGEITLDDESATDGTATGEGLIVSLTPKTGKYQLRAMGAEEFPELPLIENTTAIYLTATSLIEGLRGSLFATSGDETKQVLTGVHLTVKQDTLEFAATDGHRLAVVETTNERPLEDNDQQLEVTVPARALRELERMLAHNAASEEPIALYLDQGQVIFAWQNQRLTSRTLEGQYPAYRQLIPRQFERQVTIERRQFLSTLERIAVLADQKNNIVKLTIDSTAQELTLSCEAQEMGSGRESMNAEIAGEDIEIAFNVKYLMEGLKALPSPEIQMHINQNLTPVIFTPLGGLKMTYLAMPVQLRN
MGSDKIHHHHHHMKLYAENILLNDGWASKQTITIEQGIITAVDAGKIEGAEIAKGAVIPGMVNCHSHAFQRAFAGFSEQGSEGQDSFWTWRKIMYQFLAQLTELDAKNIAKQLYIEMLKMGYTRVAEFHYLHHDIDGSTYNSSVTTDKSASLATMAQAIFDAAKESGIGLTLLPVLYQHSGFGEQTPSDGQKRFINSTEQFNQLVSDCFTLSEQYSNTNVGIAPHSLRAVDKTSLLSAVKHVRSLDNQAPIHIHISEQQKEVDDCLAHFGQRPVQWLLDNVELDKHWCLIHATHIDEAERKGIIAKEAIAGICPTTEANLGDGIFPTTEFLADKGTIAIGSDSHISVNPIEELRWLEYAQRLIKQQRAILATDEQASVGQNLWQQAAIGGAQSTNSNTGSLAIGKQADLLVLDKDKTKLFASASQQLLDSMIFASQQNPVSDVMVNGVWQIKAQQHVEQEQASDNFANLLVRLSAS
MGSDKIHHHHHHMKMSINQIGRSNKVQIEKTEVEISTPDGKMPAFFYQPCERGQKPAVILLMEAFGLTSHIQDVATRIAKEGYVVLTPDLYYRELTNNKFGYEEVEQAMAMMYRLDFGKPIEEDIRAAIAYLKSQSNVFSEKIGVTGFCLGGGLSFLSACKFSDEIAAVASFYGMVLDDWIEAVTNISVPIYLFYGGIDSFIPPERVQQIETRFQELSKEYTLKVYPDADHGFFCHERSSYNRLAAEDSWNELTQFFHRHLQ
MGSDKIHHHHHHMKMSWNHQYTNYGSIADDNGDEEKAENSEGAAAEKVEKQHDDDGVVVHEETDGVASSRSSHHDKQKPGETKKSGDGKMDDDDIITTARSSSRRICGSAASSSDSETADDAPLLPDEGPSHAVRLEMPGDKPASPHDRFPKTPLKTL
MGSDKIHHHHHHMKNDKNLLQHFSREEREFVEKIMDMCQQVEDTYSYRLTHFLHPRQDEIVCKIANYYQLQTFSSRDLVSTEHSRVIIAPTYYELDIKHFELTALHLSYARKFHTLSHSQVLGTFLNQLGIKREYLGDILIDDERLIVFIDQKFGQIALQSITKVARVPVKGKEEEWTTVRLPIGQEWRSKDVLVSSMRLDKLISVAFNLSRATANKLIEAGHVKLDYVLTEQTSKLVEIGQLISVRRYGRVRLNEFLGFSKQGKIKLKLDIVKT
MGSDKIHHHHHHMKNIYLFIVSLFFFYTGCDTQQTKYPFSVETVLAKAGNNRKELEKALDYFYKQGDSIKIKAIEFLVAHMDIHYSETYYWKTREGKRVDFSEFDYANLETAVKAIDSMRKKYGSLDFQDTIIYDVNSLTGKYLINNVNHAVDTWRLSEYKDIPFNDFCEYILPYRVTVEPVTEWRKEYCKRYHWLTDSLQNKPLENVLDYAAIDYKDWFTFTYGSETRNEPLSRLSAQQLLFRKKGACEDIAALETFIFRSQGIPAAYISVPLWATSAGAHFSNTVFDTKMKPVKLDVTTHAVVDHPLDREPSKVIRYTYSSQPGTLASKEKEECIPTGFLQKTNYIDVTHEYWETSDVTIPLFNDTTHIIYACMFSMGRWNAEWWGERMENSVTFHNMPRGVVILPMIYKEHQLIPIGYPIVNGYNHQLYLVPDLLHTMTVEIEEQDRYLRFRPDKKYELFYWDNAWISLGTQVATMDADCLQFNQVPQNVLMLLVPEYSERKERPFIIMPDGTRYWW
MGSDKIHHHHHHMKNTELEQLINEKLNSAAISDYAPNGLQVEGKETVQKIVTGVTASQALLDEAVRLGADAVIVHHGYFWKGESPVIRGMKRNRLKTLLANDINLYGWHLPLDAHPELGNNAQLAALLGITVMGEIEPLVPWGELTMPVPGLELASWIEARLGRKPLWCGDTGPEVVQRVAWCTGGGQSFIDSAARFGVDAFITGEVSEQTIHSAREQGLHFYAAGHHATERGGIRALSEWLNENTDLDVTFIDIPNPA
MGSDKIHHHHHHMKPIKEIADQLELKDDILYPYGHYIAKIDHRFLKSLENHEDGKLILVTAVTPTPAGEGKTTTSIGLSMSLNRIGKKSIVTLREPSLGPTLGLKGGATGGGRSRVLPSDEINLHFTGDMHAVASAHNLLAAVLDSHIKHGNELKIDITRVFWKRTMDMNDRALRSIVIGLGGSANGFPREDSFIITAASEVMAILALSENMKDLKERLGKIIVALDADRKIVRISDLGIQGAMAVLLKDAINPNLVQTTEGTPALIHCGPFANIAHGTNSIIATKMAMKLSEYTVTEAGFGADLGAEKFIDFVSRVGGFYPNAAVLVATVRALKYHGGANLKNIHEENLEALKEGFKNLRVHVENLRKFNLPVVVALNRFSTDTEKEIAYVVKECEKLGVRVAVSEVFKKGSEGGVELAKAVAEAAKDVEPAYLYEMNDPVEKKIEILAKEIYRAGRVEFSDTAKNALKFIKKHGFDELPVIVAKTPKSISHDPSLRGAPEGYTFVVSDLFVSAGAGFVVALSGDINLMPGLPKKPNALNMDVDDSGNIVGVS
MGSDKIHHHHHHMKQIKHTFEEKKKMGGKASMWNLWHGCHKWSEGCRHCYVYRTDGKYGKDSSVVTKTEKFGLPLQKKKNGEYKIPSGNLVYTCFTSDFLIEDVDEWRAEAWEMMRIRQDLHFMFITKRIDRLQQCLPPDWGDGYDNVTICCTMENQDRVDYRLPIYKESPIKHKIIICEPLLSQIDFRGELEGWVEQVVAGGESGKEARVCNYDWVLDIRRQCVEAHVGFWFKQTGSYLLKDGHEYKVARQFQHSQARKAELNYTPEK
MGSDKIHHHHHHMKQLILFLLCLSTWTAQAKIYNVKDYGAKADGTTIDSPAINRAIEEAASQGGGTVYFPAGEYACYSIRLASHIHLYIEQGARIVGAFPSATEGYDPAEPNEHTQFQDFGHSHWKNSLIWGIGLEDITISGPGLIYGKGLTREESRLPGVGNKAISLKLCKNVTLKDFSLLHCGHFGLLATGVDNLSILNVKVDTNRDGFDIDCCKNVRISHCTVNAPWDDAIVLKASYGLGYFKDTENVTISDCFVSGYDRGSVLDCTWQRDEPQAPDHGFVTGRIKLGTESSGGFKNIAITNCIFERCRGLALETVDGGKLEDIVISNITMRDIVNAPIFLRLGARMRSPQGTPVGTMKRILISHVNVFNADSRYSSIISGIPGALIEDVTLSDIHIYHQGGYTEADGLLTPPEQEKVYPEPWMFGTIPAKGFYIRHARNITLDNVNFHYEKADGRPLFVTDDASDIRYRNITVDGKEFNTAN
MGSDKIHHHHHHMKRARIIYNPTSGREIFKKHLAQVLQKFEQAGYETSTHATTCAGDATHAAKEAALREFDLIIAAGGDGTINEVVNGLAPLDNRPTLGVIPVGTTNDFARALGIPREDILKAADTVINGVARPIDIGQVNGQYFINIAGGGRLTELTYDVPSKLKTMLGQLAYYLKGMEMLPSLRPTEVEIEYDGKLFQGEIMLFLVTLTNSVGGFEKLAPDSSLNDGMFDLMILKKANLAEFIRVATMALRGEHINDQHIIYTKANRVKVNVSEKMQLNLDGEYGGMLPGEFVNLYRHIHVVMPKEKAEQLDD
MGSDKIHHHHHHMKRAVVVFSGGQDSTTCLIQALQDYDDVHCITFDYGQRHRAEIEVAQELSQKLGAAAHKVLDVGLLNELATSSLTRDSIPVPDYDANAQGIPNTFVPGRNILFLTLASIYAYQVGAEAVITGVCETDFSGYPDCRDEFVKALNQAIVLGIARDIRFETPLMWLNKAETWALADYYQQLDTVRYHTLTCYNGIKGDGCGQCAACHLRANGLAQYQKDAATVMASLKQKVGLR
MGSDKIHHHHHHMKRCPNCGCRGQAAFPEHVPGQVQYGPRLHAFTTLLNVGHFIPLERVTQLTDALFGASISDGTVALNINLASERLEPFEDDLKTGLRQQAVLHADETGAKVNGKLNWFHVACFARGTLYTLHEKRGYAALEAAGVLTDFTGVVVHDAWSTYFRLPGEHALCNAHLLRELRKLDEHDRQPWAGELRRALQQVYHAQKTGTLTDEQRAVFYTRFDELVLAGLEANPVQEPVPKRRGKPKQLPGRNLALRCQQHRAAMLLFLERADVPFDNNQAERDIRMACVKRKVSGGFRSEVGGQAFCRVRSFISTLQKQGLSVWTGLVDVFRGVLPKLDFSC
